This is an account of results in publication PMC3154637 (Structure (London, England : 1993), 2011).

In one assay the target is His-AMSHΔC-K88A (human, UniProt O95630 1-146, K88A). The assay is described as follows: pull-down.
The next assay addresses MBP-AMSH(1–206) (human, UniProt O95630 1-206). The assay is described as follows: SPR. Background: SPR reads the build-up and loss of mass on a sensor chip optically.

B1: GST-CHMP1BΔN (domain or fragment, UniProt Q7LBR1 126-199, looked up)
chain: DVQTQQMEDTMSSTTTLTTPQNQVDMLLQEMADEAGLDLNMELPQGQTGSVGTSVASAEQDELSQRLARLRDQV
As to B1, the binding result with His-AMSHΔC-K88A is reported as “binds”.

B2: GST-CHMP1AΔN (domain or fragment, UniProt Q9HD42 123-196, looked up)
chain: DVHTSVMEDSMSSATTLTTPQEQVDSLIMQIAEENGLEVLDQLSQLPEGASAVGESSVRSQEDQLSRRLAALRN
Broadly, the Kd is the free concentration of one partner at which half of the binding sites on the other are occupied at equilibrium, for simple one-to-one binding. Lower therefore signals a tighter complex. In general, koff refers to a measure of how fast the partners let go of each other. A word on the kon: it is the rate constant with which the complex forms. Higher therefore signals fast association. For B2, in the assay with MBP-AMSH(1–206), the Kd was 1.49 µM, the koff turned out to be 0.00581 s⁻¹ and the kon came to 3890 M⁻¹ s⁻¹.
